Numbered stars: 1 amine (or outer) side, 2 acyl side, 3 side chain; on linkers, the order of the positions; unused ones are H or OH. Bridge positions count the residues as written; N and C are the ends. Side chains are listed from the residue outwards. Ends that are not written are not given here. * marks the point of attachment. C20 diacid = O=C(O)CCCCCCCCCCCCCCCCCCC(=O)*; γGlu = O=C(O)[C@H](CCC(=O)[*:2])N[*:1]; AEEA = NCCOCCOCC(=O)O
T1: human amylin receptor (amylin 3(a) receptor: human calcitonin receptor co-expressed with RAMP-3) (human, UniProt P30988 25-474; O60896 24-148, limits assumed)
T1 sequence (looked up) 1: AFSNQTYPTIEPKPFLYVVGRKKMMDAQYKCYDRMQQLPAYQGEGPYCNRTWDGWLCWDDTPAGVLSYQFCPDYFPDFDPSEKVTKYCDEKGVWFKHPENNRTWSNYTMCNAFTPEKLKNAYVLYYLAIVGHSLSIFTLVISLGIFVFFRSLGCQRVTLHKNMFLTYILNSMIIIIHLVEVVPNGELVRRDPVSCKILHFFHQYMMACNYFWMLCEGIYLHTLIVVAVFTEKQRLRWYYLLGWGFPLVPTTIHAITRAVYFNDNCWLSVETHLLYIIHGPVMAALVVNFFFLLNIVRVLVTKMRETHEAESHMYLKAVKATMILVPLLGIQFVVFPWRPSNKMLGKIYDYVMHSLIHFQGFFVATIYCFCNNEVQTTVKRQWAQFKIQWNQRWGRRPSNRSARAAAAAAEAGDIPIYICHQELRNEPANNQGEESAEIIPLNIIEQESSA
T1 sequence (looked up) 2: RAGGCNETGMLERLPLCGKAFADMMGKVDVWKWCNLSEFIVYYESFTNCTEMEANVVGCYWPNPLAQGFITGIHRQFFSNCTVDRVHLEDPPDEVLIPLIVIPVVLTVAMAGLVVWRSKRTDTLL

T2: human calcitonin receptor (human, UniProt P30988 25-474)
T2 sequence (looked up): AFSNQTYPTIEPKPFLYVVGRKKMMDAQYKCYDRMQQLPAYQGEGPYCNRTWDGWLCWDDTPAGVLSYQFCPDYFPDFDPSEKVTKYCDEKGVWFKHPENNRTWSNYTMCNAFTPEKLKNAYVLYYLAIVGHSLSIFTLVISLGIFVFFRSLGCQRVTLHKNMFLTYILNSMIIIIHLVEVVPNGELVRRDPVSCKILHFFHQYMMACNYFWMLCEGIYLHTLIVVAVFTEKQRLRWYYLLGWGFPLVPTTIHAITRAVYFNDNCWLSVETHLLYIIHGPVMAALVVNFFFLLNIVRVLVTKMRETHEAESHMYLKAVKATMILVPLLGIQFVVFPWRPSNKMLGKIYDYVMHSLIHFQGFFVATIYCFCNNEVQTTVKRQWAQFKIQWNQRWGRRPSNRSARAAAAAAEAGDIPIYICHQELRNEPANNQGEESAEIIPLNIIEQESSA


Experiments:
[1] = biological target: T1, human amylin receptor (amylin 3(a) …); assay: cell-based or functional assay
[2] = biological target: T2, human calcitonin receptor; assay: cell-based or functional assay

hAmylin-R funct. EC50 [1] [nM]	hCTR funct. EC50 [2] [nM]	Ratio hCT/hAmylin funct. [1]	Binder
0.04	0.715		K([γGlu-C20 diacid])CNTATCATQRLAHFLRHSSPNFGAIPSSTNVGSNTY-NH2 (disulfide 2-7; N-terminus assumed; SMILES CC[C@H](C)[C@H](NC(=O)[C@H](C)NC(=O)CNC(=O)[C@H](Cc1ccccc1)NC(=O)[C@H](CC(N)=O)NC(=O)[C@@H]1CCCN1C(=O)[C@H](CO)NC(=O)[C@H](CO)NC(=O)[C@H](Cc1c[nH]cn1)NC(=O)[C@H](CCCNC(=N)N)NC(=O)[C@H](CC(C)C)NC(=O)[C@H](Cc1ccccc1)NC(=O)[C@H](Cc1c[nH]cn1)NC(=O)[C@H](C)NC(=O)[C@H](CC(C)C)NC(=O)[C@H](CCCNC(=N)N)NC(=O)[C@H](CCC(N)=O)NC(=O)[C@@H](NC(=O)[C@H](C)NC(=O)[C@@H]1CSSC[C@H](NC(=O)[C@@H](N)CCCCNC(=O)CC[C@H](NC(=O)CCCCCCCCCCCCCCCCCCC(=O)O)C(=O)O)C(=O)N[C@@H](CC(N)=O)C(=O)N[C@@H]([C@@H](C)O)C(=O)N[C@@H](C)C(=O)N[C@@H]([C@@H](C)O)C(=O)N1)[C@@H](C)O)C(=O)N1CCC[C@H]1C(=O)N[C@@H](CO)C(=O)N[C@@H](CO)C(=O)N[C@H](C(=O)N[C@@H](CC(N)=O)C(=O)N[C@H](C(=O)NCC(=O)N[C@@H](CO)C(=O)N[C@@H](CC(N)=O)C(=O)N[C@H](C(=O)N[C@@H](Cc1ccc(O)cc1)C(N)=O)[C@@H](C)O)C(C)C)[C@@H](C)O, also called compound 70) [N^ε1-[(4S)-4-carboxy-4-(19-carboxynonadecanoylamino)butanoyl]-[His14,Arg17,Pro21,Pro27]-h-amylin]
0.085	2.38	28	K([γGlu-γGlu-C20 diacid])CNTATCATQRLAHFLRHSSPNFGAIPSSTNVGSNTY-NH2 (disulfide 2-7; N-terminus assumed; SMILES CC[C@H](C)[C@H](NC(=O)[C@H](C)NC(=O)CNC(=O)[C@H](Cc1ccccc1)NC(=O)[C@H](CC(N)=O)NC(=O)[C@@H]1CCCN1C(=O)[C@H](CO)NC(=O)[C@H](CO)NC(=O)[C@H](Cc1c[nH]cn1)NC(=O)[C@H](CCCNC(=N)N)NC(=O)[C@H](CC(C)C)NC(=O)[C@H](Cc1ccccc1)NC(=O)[C@H](Cc1c[nH]cn1)NC(=O)[C@H](C)NC(=O)[C@H](CC(C)C)NC(=O)[C@H](CCCNC(=N)N)NC(=O)[C@H](CCC(N)=O)NC(=O)[C@@H](NC(=O)[C@H](C)NC(=O)[C@@H]1CSSC[C@H](NC(=O)[C@@H](N)CCCCNC(=O)CC[C@H](NC(=O)CC[C@H](NC(=O)CCCCCCCCCCCCCCCCCCC(=O)O)C(=O)O)C(=O)O)C(=O)N[C@@H](CC(N)=O)C(=O)N[C@@H]([C@@H](C)O)C(=O)N[C@@H](C)C(=O)N[C@@H]([C@@H](C)O)C(=O)N1)[C@@H](C)O)C(=O)N1CCC[C@H]1C(=O)N[C@@H](CO)C(=O)N[C@@H](CO)C(=O)N[C@H](C(=O)N[C@@H](CC(N)=O)C(=O)N[C@H](C(=O)NCC(=O)N[C@@H](CO)C(=O)N[C@@H](CC(N)=O)C(=O)N[C@H](C(=O)N[C@@H](Cc1ccc(O)cc1)C(N)=O)[C@@H](C)O)C(C)C)[C@@H](C)O, also called compound 92)
0.033	0.236	7.2	K([AEEA-C20 diacid])CNTATCATQRLAHFLRHSSPNFGAIPSSTNVGSNTY-NH2 (disulfide 2-7; N-terminus assumed; SMILES CC[C@H](C)[C@H](NC(=O)[C@H](C)NC(=O)CNC(=O)[C@H](Cc1ccccc1)NC(=O)[C@H](CC(N)=O)NC(=O)[C@@H]1CCCN1C(=O)[C@H](CO)NC(=O)[C@H](CO)NC(=O)[C@H](Cc1c[nH]cn1)NC(=O)[C@H](CCCNC(=N)N)NC(=O)[C@H](CC(C)C)NC(=O)[C@H](Cc1ccccc1)NC(=O)[C@H](Cc1c[nH]cn1)NC(=O)[C@H](C)NC(=O)[C@H](CC(C)C)NC(=O)[C@H](CCCNC(=N)N)NC(=O)[C@H](CCC(N)=O)NC(=O)[C@@H](NC(=O)[C@H](C)NC(=O)[C@@H]1CSSC[C@H](NC(=O)[C@@H](N)CCCCNC(=O)COCCOCCNC(=O)CCCCCCCCCCCCCCCCCCC(=O)O)C(=O)N[C@@H](CC(N)=O)C(=O)N[C@@H]([C@@H](C)O)C(=O)N[C@@H](C)C(=O)N[C@@H]([C@@H](C)O)C(=O)N1)[C@@H](C)O)C(=O)N1CCC[C@H]1C(=O)N[C@@H](CO)C(=O)N[C@@H](CO)C(=O)N[C@H](C(=O)N[C@@H](CC(N)=O)C(=O)N[C@H](C(=O)NCC(=O)N[C@@H](CO)C(=O)N[C@@H](CC(N)=O)C(=O)N[C@H](C(=O)N[C@@H](Cc1ccc(O)cc1)C(N)=O)[C@@H](C)O)C(C)C)[C@@H](C)O, also called compound 90) [N^ε1-[2-[2-[2-(19-carboxynonadecanoylamino)ethoxy]ethoxy]acetyl]-[His14,Arg17,Pro21,Pro27]-h-amylin]
0.404	11.2	27.8	K([γGlu-γGlu-C20 diacid])CNTATCATQRLAEFLRHSSPNFGAIPSSTNVGSRTY-NH2 (disulfide 2-7; N-terminus assumed; SMILES CC[C@H](C)[C@H](NC(=O)[C@H](C)NC(=O)CNC(=O)[C@H](Cc1ccccc1)NC(=O)[C@H](CC(N)=O)NC(=O)[C@@H]1CCCN1C(=O)[C@H](CO)NC(=O)[C@H](CO)NC(=O)[C@H](Cc1c[nH]cn1)NC(=O)[C@H](CCCNC(=N)N)NC(=O)[C@H](CC(C)C)NC(=O)[C@H](Cc1ccccc1)NC(=O)[C@H](CCC(=O)O)NC(=O)[C@H](C)NC(=O)[C@H](CC(C)C)NC(=O)[C@H](CCCNC(=N)N)NC(=O)[C@H](CCC(N)=O)NC(=O)[C@@H](NC(=O)[C@H](C)NC(=O)[C@@H]1CSSC[C@H](NC(=O)[C@@H](N)CCCCNC(=O)CC[C@H](NC(=O)CC[C@H](NC(=O)CCCCCCCCCCCCCCCCCCC(=O)O)C(=O)O)C(=O)O)C(=O)N[C@@H](CC(N)=O)C(=O)N[C@@H]([C@@H](C)O)C(=O)N[C@@H](C)C(=O)N[C@@H]([C@@H](C)O)C(=O)N1)[C@@H](C)O)C(=O)N1CCC[C@H]1C(=O)N[C@@H](CO)C(=O)N[C@@H](CO)C(=O)N[C@H](C(=O)N[C@@H](CC(N)=O)C(=O)N[C@H](C(=O)NCC(=O)N[C@@H](CO)C(=O)N[C@@H](CCCNC(=N)N)C(=O)N[C@H](C(=O)N[C@@H](Cc1ccc(O)cc1)C(N)=O)[C@@H](C)O)C(C)C)[C@@H](C)O, also called compound 89)
0.389	1.95		KCNTATCATQRLADFLRHSSK([γGlu-γGlu-C20 diacid])NFGAIPSSTNVGSDTY-NH2 (disulfide 2-7; N-terminus assumed; SMILES CC[C@H](C)[C@H](NC(=O)[C@H](C)NC(=O)CNC(=O)[C@H](Cc1ccccc1)NC(=O)[C@H](CC(N)=O)NC(=O)[C@H](CCCCNC(=O)CC[C@H](NC(=O)CC[C@H](NC(=O)CCCCCCCCCCCCCCCCCCC(=O)O)C(=O)O)C(=O)O)NC(=O)[C@H](CO)NC(=O)[C@H](CO)NC(=O)[C@H](Cc1c[nH]cn1)NC(=O)[C@H](CCCNC(=N)N)NC(=O)[C@H](CC(C)C)NC(=O)[C@H](Cc1ccccc1)NC(=O)[C@H](CC(=O)O)NC(=O)[C@H](C)NC(=O)[C@H](CC(C)C)NC(=O)[C@H](CCCNC(=N)N)NC(=O)[C@H](CCC(N)=O)NC(=O)[C@@H](NC(=O)[C@H](C)NC(=O)[C@@H]1CSSC[C@H](NC(=O)[C@@H](N)CCCCN)C(=O)N[C@@H](CC(N)=O)C(=O)N[C@@H]([C@@H](C)O)C(=O)N[C@@H](C)C(=O)N[C@@H]([C@@H](C)O)C(=O)N1)[C@@H](C)O)C(=O)N1CCC[C@H]1C(=O)N[C@@H](CO)C(=O)N[C@@H](CO)C(=O)N[C@H](C(=O)N[C@@H](CC(N)=O)C(=O)N[C@H](C(=O)NCC(=O)N[C@@H](CO)C(=O)N[C@@H](CC(=O)O)C(=O)N[C@H](C(=O)N[C@@H](Cc1ccc(O)cc1)C(N)=O)[C@@H](C)O)C(C)C)[C@@H](C)O, also called compound 59)
